Experimental findings from US20220098323A1 (US Dept. of Health and Human Services, published 2022) are described below.

Experiment [1] addresses T1, human GPC5 (printed as 'GPCS') (human, UniProt P78333 25-554, limits assumed).
T1 construct: The text prints 'GPCS'
T1 sequence (looked up): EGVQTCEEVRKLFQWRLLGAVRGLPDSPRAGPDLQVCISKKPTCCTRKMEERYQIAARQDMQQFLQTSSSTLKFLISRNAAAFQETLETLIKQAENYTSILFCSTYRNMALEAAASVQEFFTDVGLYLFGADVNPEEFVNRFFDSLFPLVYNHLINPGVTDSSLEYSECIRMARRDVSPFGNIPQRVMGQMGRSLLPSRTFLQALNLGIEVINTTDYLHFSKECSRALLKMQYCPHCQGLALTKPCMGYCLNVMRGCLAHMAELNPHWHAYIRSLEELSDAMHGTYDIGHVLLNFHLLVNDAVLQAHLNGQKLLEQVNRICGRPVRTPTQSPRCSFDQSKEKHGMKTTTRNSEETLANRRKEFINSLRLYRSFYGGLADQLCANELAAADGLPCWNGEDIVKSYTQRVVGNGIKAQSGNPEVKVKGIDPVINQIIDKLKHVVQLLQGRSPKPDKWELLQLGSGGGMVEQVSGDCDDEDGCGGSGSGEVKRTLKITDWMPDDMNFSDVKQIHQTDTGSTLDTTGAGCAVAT
Nature of the experiment: monoclonal phage ELISA.

In another experiment the target is human GPC3 (human, UniProt P51654 25-559, limits assumed). Nature of the experiment: monoclonal phage ELISA. In general terms: In an ELISA, binding on a coated surface is turned into a signal by an enzyme label.
human GPC3, sequence (P51654 25-559 limits assumed): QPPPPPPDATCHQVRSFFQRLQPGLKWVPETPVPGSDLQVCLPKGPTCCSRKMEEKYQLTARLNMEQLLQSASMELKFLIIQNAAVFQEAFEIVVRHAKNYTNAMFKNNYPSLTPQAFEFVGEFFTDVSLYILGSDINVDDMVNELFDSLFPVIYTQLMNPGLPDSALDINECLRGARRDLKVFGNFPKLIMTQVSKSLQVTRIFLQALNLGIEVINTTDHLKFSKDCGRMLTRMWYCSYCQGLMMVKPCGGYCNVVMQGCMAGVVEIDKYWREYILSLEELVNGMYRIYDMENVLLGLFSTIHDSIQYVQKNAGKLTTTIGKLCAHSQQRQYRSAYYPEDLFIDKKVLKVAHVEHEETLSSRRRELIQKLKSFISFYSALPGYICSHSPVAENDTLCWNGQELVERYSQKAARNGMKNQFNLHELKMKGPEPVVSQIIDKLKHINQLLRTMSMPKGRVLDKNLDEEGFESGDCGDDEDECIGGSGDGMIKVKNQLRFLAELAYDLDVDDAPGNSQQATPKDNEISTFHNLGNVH
The next experiment addresses T2, human GPC2 (human, UniProt Q8N158 24-554, limits assumed).
T2 sequence (looked up): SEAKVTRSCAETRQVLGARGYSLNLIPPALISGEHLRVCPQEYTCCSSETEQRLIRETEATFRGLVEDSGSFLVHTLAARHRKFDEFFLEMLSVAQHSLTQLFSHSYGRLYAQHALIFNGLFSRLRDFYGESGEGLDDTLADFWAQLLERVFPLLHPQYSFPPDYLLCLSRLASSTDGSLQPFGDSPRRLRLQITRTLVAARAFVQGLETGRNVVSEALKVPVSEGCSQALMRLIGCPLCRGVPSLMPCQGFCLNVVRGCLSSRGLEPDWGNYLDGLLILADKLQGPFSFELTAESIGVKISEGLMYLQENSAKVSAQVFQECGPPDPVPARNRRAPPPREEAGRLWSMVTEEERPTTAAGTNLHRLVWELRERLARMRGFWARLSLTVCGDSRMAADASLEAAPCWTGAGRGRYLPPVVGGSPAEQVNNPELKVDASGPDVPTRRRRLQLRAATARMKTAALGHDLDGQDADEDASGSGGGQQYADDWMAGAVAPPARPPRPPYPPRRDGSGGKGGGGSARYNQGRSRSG
As to the kind of experiment: monoclonal phage ELISA.

A further experiment deals with T3, mouse GPC1 (mouse, UniProt Q9QZF2 24-529, limits assumed).
T3 construct: also called MsGPC1
T3 sequence (looked up): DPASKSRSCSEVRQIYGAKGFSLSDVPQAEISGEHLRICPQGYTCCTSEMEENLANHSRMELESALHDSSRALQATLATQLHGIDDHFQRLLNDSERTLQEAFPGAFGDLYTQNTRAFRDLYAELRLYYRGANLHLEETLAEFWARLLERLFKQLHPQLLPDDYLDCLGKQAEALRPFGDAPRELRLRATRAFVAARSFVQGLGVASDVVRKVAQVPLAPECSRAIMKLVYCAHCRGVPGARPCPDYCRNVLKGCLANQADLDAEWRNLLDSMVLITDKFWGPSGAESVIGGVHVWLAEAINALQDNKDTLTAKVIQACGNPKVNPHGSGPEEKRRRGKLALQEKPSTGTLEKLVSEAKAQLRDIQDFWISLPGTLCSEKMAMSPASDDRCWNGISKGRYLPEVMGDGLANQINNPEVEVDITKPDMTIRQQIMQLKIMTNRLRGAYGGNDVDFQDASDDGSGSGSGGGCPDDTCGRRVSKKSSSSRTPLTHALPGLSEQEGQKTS
Nature of the experiment: monoclonal phage ELISA.

The next experiment addresses T4, human GPC6 (human, UniProt Q9Y625 24-529, limits assumed).
T4 sequence (looked up): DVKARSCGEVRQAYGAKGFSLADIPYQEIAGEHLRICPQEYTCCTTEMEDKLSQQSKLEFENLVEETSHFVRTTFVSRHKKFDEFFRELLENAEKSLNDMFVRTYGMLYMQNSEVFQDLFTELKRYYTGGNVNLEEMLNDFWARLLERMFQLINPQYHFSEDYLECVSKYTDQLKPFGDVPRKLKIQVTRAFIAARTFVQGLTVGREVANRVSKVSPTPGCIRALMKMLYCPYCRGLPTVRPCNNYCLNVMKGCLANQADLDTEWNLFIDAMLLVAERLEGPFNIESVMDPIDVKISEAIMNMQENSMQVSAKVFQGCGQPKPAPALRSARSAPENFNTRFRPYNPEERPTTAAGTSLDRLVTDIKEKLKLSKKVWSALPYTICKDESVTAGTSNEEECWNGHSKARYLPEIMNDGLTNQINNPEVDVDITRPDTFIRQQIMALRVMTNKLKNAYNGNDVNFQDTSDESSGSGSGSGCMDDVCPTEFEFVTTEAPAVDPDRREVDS
Nature of the experiment: monoclonal phage ELISA.

Experiment [2] addresses T5, human glypican-1 (GPC1) (human, UniProt P35052 24-530).
T5 construct: also called human GPC1; HuGPC1
T5 sequence (looked up): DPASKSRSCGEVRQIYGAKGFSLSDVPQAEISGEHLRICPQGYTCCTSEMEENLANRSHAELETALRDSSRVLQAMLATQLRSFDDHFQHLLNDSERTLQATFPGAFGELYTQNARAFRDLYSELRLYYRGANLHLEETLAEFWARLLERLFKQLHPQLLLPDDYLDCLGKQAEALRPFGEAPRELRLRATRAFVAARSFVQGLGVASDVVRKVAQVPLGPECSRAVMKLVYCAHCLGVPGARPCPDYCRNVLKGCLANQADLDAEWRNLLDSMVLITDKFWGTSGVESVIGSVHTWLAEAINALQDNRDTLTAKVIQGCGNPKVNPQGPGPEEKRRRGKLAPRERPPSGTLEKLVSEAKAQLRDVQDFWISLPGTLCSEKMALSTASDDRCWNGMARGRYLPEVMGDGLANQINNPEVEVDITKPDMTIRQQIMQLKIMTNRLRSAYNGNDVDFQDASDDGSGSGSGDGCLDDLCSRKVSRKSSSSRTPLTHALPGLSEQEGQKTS
Nature of the experiment: Octet kinetic analysis. (In general: Biolayer interferometry detects binding as a change in optical thickness at a sensor tip.)

Experiment [3] deals with T5, human glypican-1 (GPC1). Nature of the experiment: Octet kinetic analysis (column Kdis).
Experiment [4] addresses T5, human glypican-1 (GPC1). Nature of the experiment: Octet analysis.
Experiment [5] deals with T5, human glypican-1 (GPC1). Nature of the experiment: Octet kinetic analysis. This is another data set of the same source.
The target in experiment [6] is T5, human glypican-1 (GPC1). As to the kind of experiment: ELISA on GPC1, OD450 against concentration.
Experiment [7] deals with T5, human glypican-1 (GPC1). Nature of the experiment: Octet kinetic analysis. The source holds these as a separate data set.
The target of experiment [8] is T6, cell-surface GPC1 on GPC1-expressing tumor cells (2B9 KLM, H8, T3M4) (UniProt P35052 24-530, limits assumed).
T6 sequence (looked up): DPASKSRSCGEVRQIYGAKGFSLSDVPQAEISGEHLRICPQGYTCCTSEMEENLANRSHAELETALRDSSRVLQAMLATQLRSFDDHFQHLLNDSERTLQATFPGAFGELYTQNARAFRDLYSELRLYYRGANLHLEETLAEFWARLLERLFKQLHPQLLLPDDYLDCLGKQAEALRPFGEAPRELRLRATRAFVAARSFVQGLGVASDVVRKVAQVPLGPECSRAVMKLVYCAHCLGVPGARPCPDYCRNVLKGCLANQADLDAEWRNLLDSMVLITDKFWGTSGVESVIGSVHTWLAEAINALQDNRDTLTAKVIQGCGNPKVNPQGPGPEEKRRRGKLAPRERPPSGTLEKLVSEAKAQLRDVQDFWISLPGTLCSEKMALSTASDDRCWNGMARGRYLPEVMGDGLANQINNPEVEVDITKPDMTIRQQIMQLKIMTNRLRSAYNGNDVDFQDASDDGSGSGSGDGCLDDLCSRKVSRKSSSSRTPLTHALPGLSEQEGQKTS

B1: camel single-domain antibody D4 (VHH)
VHH: QVQLVESGGGLVQPGGSLRLSCVASGYSYSIGYMAWFRQAPGKERAWVASRYTGDGGAVFDDAVKGRFTTSQESAGNTFDLQMDSLKPEDTAMYYCAAKGPGFGRWEYWGRGTQVTVSS
notes: also called D4 antibody; VHH antibody D4
Consider B1, for which the binding result in experiment [1] is on record as “no binding”; with human GPC3 it was “no binding”; with human GPC2, “no binding”; with mouse GPC1, “binds”; with human GPC6 it was “no binding”. The molecule also showed a dissociation constant (Kd) with human glypican-1 (GPC1) [2] of 1.3 nM.

B2: HM2-LR immunotoxin (other)
chain: MEVQLQQSGAELVRPGASVKLSCTASGFNIKDDYMHWVKQRPEQGLEWIGWIDPENGDTEYASKFQGKATITADTSSNTAYLQLSSLTSEDTAVYYCTRSSVGYWGQGTTLTVSSGGGGSGGGGSGGGGSDVVMTQTPLSLPVSLGDQASISCRSSQSLVHSNGNTYLHWYLQKPGQSPKLLIYKVSNRFSGVPDRFSGSGSGTYFTLKISRVEAEDLGVYFCSQRTHVPYTFGGGTKLEIKKLKASGGRHRQPRGWEQLGGGGGSPTGAEFLGDGGDVSFSTRGTQNWTVERLLQAHRQLEERGYVFVGYHGTFLEAAQSIVFGGVRARSQDLDAIWRGFYIAGDPALAYGYAQDQEPDARGRIRNGALLRVYVPRSSLPGFYRTSLTLAAPEAAGEVERLIGHPLPLRLDAITGPEEEGGRLETILGWPLAERTVVIPSAIPTDPRNVGGDLDPSSIPDKEQAISALPDYASQPGKPPREDLK
In the case of B2, the off-rate (koff) in the experiment with human glypican-1 (GPC1) [3] is 0.00206 s⁻¹. Also, the dissociation constant Kd with human glypican-1 (GPC1) [4] amounted to 6.9 nM; in the experiment with human glypican-1 (GPC1) [5], 6.94 nM. Also, the kon with human glypican-1 (GPC1) [5] stood at 297000 M⁻¹ s⁻¹.

B3: D4-AAA-D4-LR immunotoxin (other)
chain: MQVQLVESGGGLVQPGGSLRLSCVASGYSYSIGYMAWFRQAPGKERAWVASRYTGDGGAVFDDAVKGRFTTSQESAGNTFDLQMDSLKPEDTAMYYCAAKGPGFGRWEYWGRGTQVTVSSAAAQVQLVESGGGLVQPGGSLRLSCVASGYSYSIGYMAWFRQAPGKERAWVASRYTGDGGAVFDDAVKGRFTTSQESAGNTFDLQMDSLKPEDTAMYYCAAKGPGFGRWEYWGRGTQVTVSSKLKASGGRHRQPRGWEQLGGGGGSPTGAEFLGDGGDVSFSTRGTQNWTVERLLQAHRQLEERGYVFVGYHGTFLEAAQSIVFGGVRARSQDLDAIWRGFYIAGDPALAYGYAQDQEPDARGRIRNGALLRVYVPRSSLPGFYRTSLTLAAPEAAGEVERLIGHPLPLRLDAITGPEEEGGRLETILGWPLAERTVVIPSAIPTDPRNVGGDLDPSSIPDKEQAISALPDYASQPGKPPREDLK
notes: also called bivalent D4 immunotoxin; D4-D4-LR
With B3, the concentration giving a half-maximal response (EC50) was 0.2 nM in the experiment with human glypican-1 (GPC1) [6] and 1.9 nM in experiment [8]. In addition, the affinity with human glypican-1 (GPC1) [7], expressed as Kd, was 0.09 nM.

B4: D4-GGS-D4-LR immunotoxin (other)
chain: MQVQLVESGGGLVQPGGSLRLSCVASGYSYSIGYMAWFRQAPGKERAWVASRYTGDGGAVFDDAVKGRFTTSQESAGNTFDLQMDSLKPEDTAMYYCAAKGPGFGRWEYWGRGTQVTVSSGGSQVQLVESGGGLVQPGGSLRLSCVASGYSYSIGYMAWFRQAPGKERAWVASRYTGDGGAVFDDAVKGRFTTSQESAGNTFDLQMDSLKPEDTAMYYCAAKGPGFGRWEYWGRGTQVTVSSKLKASGGRHRQPRGWEQLGGGGGSPTGAEFLGDGGDVSFSTRGTQNWTVERLLQAHRQLEERGYVFVGYHGTFLEAAQSIVFGGVRARSQDLDAIWRGFYIAGDPALAYGYAQDQEPDARGRIRNGALLRVYVPRSSLPGFYRTSLTLAAPEAAGEVERLIGHPLPLRLDAITGPEEEGGRLETILGWPLAERTVVIPSAIPTDPRNVGGDLDPSSIPDKEQAISALPDYASQPGKPPREDLK
notes: as for B3
Take B4: the 50% effective concentration (EC50) was 0.1 nM with human glypican-1 (GPC1) [6] and 3.8 nM in experiment [8]. In the experiment with human glypican-1 (GPC1) [7], this molecule had a Kd of 0.08 nM.

B5: D4-LR immunotoxin (other)
chain: MQVQLVESGGGLVQPGGSLRLSCVASGYSYSIGYMAWFRQAPGKERAWVASRYTGDGGAVFDDAVKGRFTTSQESAGNTFDLQMDSLKPEDTAMYYCAAKGPGFGRWEYWGRGTQVTVSSKLKASGGRHRQPRGWEQLGGGGGSPTGAEFLGDGGDVSFSTRGTQNWTVERLLQAHRQLEERGYVFVGYHGTFLEAAQSIVFGGVRARSQDLDAIWRGFYIAGDPALAYGYAQDQEPDARGRIRNGALLRVYVPRSSLPGFYRTSLTLAAPEAAGEVERLIGHPLPLRLDAITGPEEEGGRLETILGWPLAERTVVIPSAIPTDPRNVGGDLDPSSIPDKEQAISALPDYASQPGKPPREDLK
B5: the koff with human glypican-1 (GPC1) [3] was 0.00218 s⁻¹. Also, the Kd with human glypican-1 (GPC1) [4] was determined as 6.3 nM; with human glypican-1 (GPC1) [5] it was 6.25 nM. Besides, the results for the EC50 (with human glypican-1 (GPC1) [6]; in experiment [8]) were 4.3 nM and 8.1 nM, respectively. This molecule also came in with a kon with human glypican-1 (GPC1) [5] of 350000 M⁻¹ s⁻¹.

One may read the Kd as the constant that tells how readily two partners part at equilibrium. As usually defined, the koff is the first-order rate constant of dissociation. Read a low koff as slow dissociation. One may read the kon as the rate constant with which the complex forms. Low values mean slower complex formation, high ones faster complex formation. One may read the EC50 as the midpoint of the concentration-response curve. A higher EC50 goes with weaker potency.
